In publication doi:10.1101/786475 (bioRxiv, 2019):

Key:
Test in all cases: peptide or protein array
[1] = molecular target: Mal12p (spotted on the yeast ProtoArray) (S. cerevisiae, UniProt P53341 1-584)
[2] = molecular target: Frd1p (spotted on the yeast ProtoArray) (S. cerevisiae, UniProt P32614 1-470)
[3] = molecular target: T1, Emi2p (spotted on the yeast ProtoArray) (S. cerevisiae, UniProt Q04409 1-500)
T1 sequence (looked up): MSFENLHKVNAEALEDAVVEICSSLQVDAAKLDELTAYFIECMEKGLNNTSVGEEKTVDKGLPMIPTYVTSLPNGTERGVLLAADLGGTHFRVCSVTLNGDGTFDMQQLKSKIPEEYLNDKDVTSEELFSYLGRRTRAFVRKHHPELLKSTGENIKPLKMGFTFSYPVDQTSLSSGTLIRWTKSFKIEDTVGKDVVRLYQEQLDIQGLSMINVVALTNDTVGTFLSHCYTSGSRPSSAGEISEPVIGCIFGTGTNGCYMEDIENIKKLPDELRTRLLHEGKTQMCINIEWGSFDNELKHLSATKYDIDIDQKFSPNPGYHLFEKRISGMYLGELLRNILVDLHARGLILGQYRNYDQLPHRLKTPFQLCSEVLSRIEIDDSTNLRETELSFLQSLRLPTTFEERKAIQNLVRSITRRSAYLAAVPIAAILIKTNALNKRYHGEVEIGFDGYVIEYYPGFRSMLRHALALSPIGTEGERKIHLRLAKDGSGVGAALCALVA

[4] = molecular target: T2, Drs1p (spotted on the yeast ProtoArray) (S. cerevisiae, UniProt P32892 1-752)
T2 sequence (looked up): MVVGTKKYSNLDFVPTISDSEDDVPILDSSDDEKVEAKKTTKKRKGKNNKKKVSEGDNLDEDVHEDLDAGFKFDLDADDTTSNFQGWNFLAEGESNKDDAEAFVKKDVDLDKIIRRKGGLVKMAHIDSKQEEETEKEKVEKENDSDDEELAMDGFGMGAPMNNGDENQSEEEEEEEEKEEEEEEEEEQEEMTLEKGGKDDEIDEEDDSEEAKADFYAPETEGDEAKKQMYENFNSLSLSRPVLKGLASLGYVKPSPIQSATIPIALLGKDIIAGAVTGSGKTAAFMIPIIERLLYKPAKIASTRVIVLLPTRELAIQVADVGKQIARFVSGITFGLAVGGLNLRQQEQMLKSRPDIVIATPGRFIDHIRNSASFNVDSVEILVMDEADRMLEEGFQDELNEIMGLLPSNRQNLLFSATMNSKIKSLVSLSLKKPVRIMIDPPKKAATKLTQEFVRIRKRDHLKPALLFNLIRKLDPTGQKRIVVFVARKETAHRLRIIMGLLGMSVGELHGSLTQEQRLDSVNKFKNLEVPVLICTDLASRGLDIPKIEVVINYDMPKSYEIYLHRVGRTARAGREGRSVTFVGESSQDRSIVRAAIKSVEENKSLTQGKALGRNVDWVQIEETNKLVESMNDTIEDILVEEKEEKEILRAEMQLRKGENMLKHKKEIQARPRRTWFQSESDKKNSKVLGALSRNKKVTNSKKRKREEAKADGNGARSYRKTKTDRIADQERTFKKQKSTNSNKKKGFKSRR

[5] = molecular target: T3, Cap2p (spotted on the yeast ProtoArray) (S. cerevisiae, UniProt P13517 1-287)
T3 sequence (looked up): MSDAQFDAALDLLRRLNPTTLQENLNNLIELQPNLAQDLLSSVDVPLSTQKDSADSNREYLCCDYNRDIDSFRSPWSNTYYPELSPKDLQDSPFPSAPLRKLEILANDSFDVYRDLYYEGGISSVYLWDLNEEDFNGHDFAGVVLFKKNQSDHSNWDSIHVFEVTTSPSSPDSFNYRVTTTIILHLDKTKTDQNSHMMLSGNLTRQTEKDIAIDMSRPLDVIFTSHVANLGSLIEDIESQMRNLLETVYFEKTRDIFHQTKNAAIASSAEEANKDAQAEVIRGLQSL

[6] = molecular target: T4, Gln1p (spotted on the yeast ProtoArray) (S. cerevisiae, UniProt P32288 1-370)
T4 sequence (looked up): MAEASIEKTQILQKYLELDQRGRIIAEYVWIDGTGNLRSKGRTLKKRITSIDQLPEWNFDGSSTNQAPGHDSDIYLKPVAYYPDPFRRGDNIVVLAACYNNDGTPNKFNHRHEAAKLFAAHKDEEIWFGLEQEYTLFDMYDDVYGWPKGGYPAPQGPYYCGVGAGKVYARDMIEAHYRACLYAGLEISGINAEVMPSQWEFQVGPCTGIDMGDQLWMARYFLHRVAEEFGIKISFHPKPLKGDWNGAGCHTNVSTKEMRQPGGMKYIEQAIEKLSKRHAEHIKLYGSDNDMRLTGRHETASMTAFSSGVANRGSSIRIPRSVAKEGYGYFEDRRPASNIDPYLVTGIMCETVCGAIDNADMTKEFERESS

Measured: binding result

Sequence of Mal12p (spotted on the yeast ProtoArray) (P53341 whole entry): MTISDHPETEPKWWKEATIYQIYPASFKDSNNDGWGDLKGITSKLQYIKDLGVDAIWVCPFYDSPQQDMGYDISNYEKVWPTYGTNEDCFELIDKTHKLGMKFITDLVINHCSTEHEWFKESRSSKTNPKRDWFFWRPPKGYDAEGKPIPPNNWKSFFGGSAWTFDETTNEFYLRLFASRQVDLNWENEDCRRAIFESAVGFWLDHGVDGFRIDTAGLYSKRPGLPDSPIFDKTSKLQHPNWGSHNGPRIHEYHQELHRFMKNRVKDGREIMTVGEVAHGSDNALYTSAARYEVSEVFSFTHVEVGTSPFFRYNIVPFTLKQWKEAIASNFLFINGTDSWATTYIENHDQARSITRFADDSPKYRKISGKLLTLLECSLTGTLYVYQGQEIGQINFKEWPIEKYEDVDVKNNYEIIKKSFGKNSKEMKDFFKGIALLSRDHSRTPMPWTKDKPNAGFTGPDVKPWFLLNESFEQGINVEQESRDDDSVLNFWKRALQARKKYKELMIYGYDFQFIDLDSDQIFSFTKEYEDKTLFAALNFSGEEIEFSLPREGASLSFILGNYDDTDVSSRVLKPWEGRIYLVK
Sequence of Frd1p (spotted on the yeast ProtoArray) (P32614 whole entry): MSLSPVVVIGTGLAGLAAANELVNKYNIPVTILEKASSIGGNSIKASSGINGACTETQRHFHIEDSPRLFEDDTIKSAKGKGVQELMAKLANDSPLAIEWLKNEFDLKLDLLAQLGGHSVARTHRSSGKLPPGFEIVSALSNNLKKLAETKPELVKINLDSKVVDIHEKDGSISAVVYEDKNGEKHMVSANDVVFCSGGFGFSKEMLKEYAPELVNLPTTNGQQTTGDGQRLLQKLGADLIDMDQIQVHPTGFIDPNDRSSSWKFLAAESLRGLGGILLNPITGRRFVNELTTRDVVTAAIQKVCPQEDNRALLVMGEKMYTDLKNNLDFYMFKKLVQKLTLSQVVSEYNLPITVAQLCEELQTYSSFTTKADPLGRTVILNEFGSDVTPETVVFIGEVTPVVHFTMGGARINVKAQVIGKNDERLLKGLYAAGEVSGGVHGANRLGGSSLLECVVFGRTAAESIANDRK

B1: purified and biotinylated cytoplasmic domain of the Msb2p protein (HIS-Msb2p^CYT) (domain or fragment, S. cerevisiae, UniProt P32334 1207-1306, looked up)
chain: AFKYIIRRRIQSQEIIKNPEISSISSSEFGGEKNYNNEKRMSVQESITQSMRIQNWMDDSYYGHGLTNNDSTPTRHNTSSSIPKISRPIASQNSLGWNEV
modifications: biotinylated in vitro (sites not given)
binds: [1] | [2] | [3] | [4] | [5] | [6]
